Measurements as given in US20160223554A1, “METHODS FOR DIAGNOSIS, PROGNOSIS AND METHODS OF TREATMENT” (priority 2011, published 2016).

Assays:
Assay type in all cases: cell-based, human
AML PBMC = test: Kinase inhibitor Signaling Arm, SCNP (Example 13); settings: range over AML PBMC samples (N=6); short modulation, 15 minutes
AML blasts = test: SCNP signaling and apoptosis nodes in AML BMMC (Example 4, Study No. 2)
[1] = tested on: AML bone marrow mononuclear cells (BMMC); test: SCNP of paired diagnosis and relapse AML BMMC and independent diagnostic set (Example 5); settings: for modulator responsive cells in the diagnostic AML bone marrow samples: diagnosis samples of Patients 1 and 2, 15 minutes modulation; for cells in which both p-Akt and p-S6 were induced: SCF 20 ng/ml, 15 minutes
Text: All AML bone marrow mononuclear cells (BMMC) were derived from the bone marrow (BM) of AML patients treated at MD Anderson Cancer Center (MDACC) between September 1999 and September 2006. Clinical data were de-identified in compliance with Health Insurance Portability and Accountability Act regulations. Patient/sample inclusion criteria required a diagnosis of French-American-British (FAB) classification of M0 through M7 AML (excluding M3) AML, collection prior to therapy initiation and at least 50% viability upon sample thaw. For the identification of chemoresistant signaling profiles, two longitudinally paired BMMC samples at diagnosis (collection prior to the initiation of induction chemotherapy) and first relapse, were examined. An independent test set comprised of 47 BMMC samples collected at diagnosis from AML patients with a disease response of CR after high dose cytarabine based chemotherapy was used to assess the ability of the identified signaling profiles to predict disease relapse. Healthy, unstimulated BMMC (n=2) were purchased from a commercial source (All Cells) to serve as a control. All samples underwent fractionation over Ficoll-Hypaque prior to cryopreservation with 90% fetal bovine serum and 10% dimethyl sulfoxide and storage in liquid nitrogen.
The SCNP assay measured response to growth factors and cytokines involved in hematopoietic progenitor or myeloid biology (SCF, FLT3L, G-CSF, IL-27), drug transporter (ABCG2, MRP-1) and chemokine receptors (CXCR4) associated with adverse disease prognosis in AML, and the c-Kit growth factor receptor for SCF. The SCF and FLT3L—mediated PI3K/Akt and MAPK pathway is important for maintaining the hematopoietic stem cell pool; G-CSF-mediated Jak/STAT pathway activation is important for neutrophilic differentiation of hematopoietic progenitor cells; interleukin (IL)-27 mediated Jak/STAT pathway activation is important in regulating proliferation and differentiation of hematopoietic stem cells; CXCR4 expression is associated with disease relapse and decreased survival; and drug transporter expression levels (i.e. ABCG2 and MRP-1) are known to be associated with adverse prognosis in AML. All together, approximately 20 signaling nodes were evaluated in each sample.
SCNP assays were performed as described previously. Cryopreserved samples were thawed at 37° C. and washed once in warm PBS containing 10% FBS (HyClone, Waltham, Mass., USA) and 2 mM EDTA. […] The cells were re-suspended in RPMI containing 1% FBS, aliquoted to 100,000 cells/condition and rested for 1-2 hours at 37° C. Cells were incubated for 15 minutes at 37° C. with each of the following signaling modulators: fins-like tyrosine kinase receptor-3 ligand (FLT3L, 50 ng/ml; eBiosciences, San Diego, Calif., USA); granulocyte colony-stimulating factor (G-CSF, 50 ng/ml; R&D Systems, Minneapolis, Minn., USA); interleukin-27 (IL-27, 50 ng/ml, R&D Systems); stem cell factor (SCF, 20 ng/ml, R&D Systems). After exposure to modulators, cells were fixed with a final concentration of 1.6% paraformaldehyde (Electron Microscopy Sciences, Hatfield, Pa., USA) for 10 minutes at 37° C. Cells were pelleted and then permeabilized with 100% ice-cold methanol (Sigma-Aldrich, St. Louis, Mo., USA) and stored at −80° C. overnight. Subsequently, cells were washed with FACS buffer containing phosphate buffered saline (PBS, Fisher Scientific, Waltham, Mass., USA), 0.5% bovine serum albumin (BSA, Ankeny, Iowa, USA), 0.05% NaN3 (Mallinckrodt, Hazelwood, Mo., USA), pelleted and stained with cocktails of fluorochrome-conjugated antibodies. As an exploratory effort, when sufficient number of cells were available, simultaneous measurement of c-Kit expression and SCF induced signaling was also performed. Antibodies were available from commercial vendors such as BD, Bechman Coulter, Invitrogen and R&D Systems.
Flow cytometry data was acquired on an LSR II and/or CANTO II flow cytometer using the FACS DIVA software (BD Biosciences, San Jose, Calif.). […]

[2] = Study No.2, patients age 60 and older
[3] = Study No.2, patients with De Novo AML
[4] = Study No.2, patients with Secondary AML
[5] = Fold metric, all patients, Study No. 2
[6] = Study No.2, patients less than 60 years old
[7] = TotalPhospho metric, all patients, Study No. 2

## SCF: stem cell factor, ligand of c-Kit
AML PBMC
  percentage of growth factor responsive cells: 6%-49%
AML blasts; [2]
  Mean Value of CRs, p-S6 Fold: 0.14
  Mean Value of NRs, p-S6 Fold: 0.70
AML blasts; [3]
  Mean Value of CRs, p-Akt Fold: 0.52
  Mean Value of CRs, p-PLCy2 TotalPhospho: 1.29
  Mean Value of CRs, p-S6 Fold: 1.05
  Mean Value of NRs, p-Akt Fold: −0.20
  Mean Value of NRs, p-PLCy2 TotalPhospho: 1.96
  Mean Value of NRs, p-S6 Fold: 0.43
AML blasts; [4]
  Mean Value of CRs, p-S6 Fold: 0.21
  Mean Value of NRs, p-S6 Fold: 1.28
[1]
  modulator responsive cells in the diagnostic AML bone marrow samples: ~1%
[1]; relapse sample from Patient 1
  cells in which both p-Akt and p-S6 were induced: 3.2%
[1]; relapse sample from Patient 2
  cells in which both p-Akt and p-S6 were induced: 31.7%

B1: FLT3L: fms-like tyrosine kinase receptor-3 ligand (protein, UniProt P49771 27-235, looked up)
Fms-related tyrosine kinase 3 …: TQDCSFQHSPISSDFAVKIRELSDYLLQDYPVTVASNLQDEELCGGLWRLVLAQRWMERLKTVAGSKMQGLLERVNTEIHFVTKCAFQPPPSCLRFVQTNISRLLQETSEQLVALKPWITRQNFSRCLELQCQPDSSTLPPPWSPRPLEATAPTAPQPPLLLLLLLPVGLLLLAAAWCLHWQRTRRRTPRPGEQVPPVPSPQDLLLVEH
AML PBMC
  percentage of growth factor responsive cells: 3%-22%
AML blasts; [2]
  Mean Value of CRs, p-Akt Fold: 0.00
  Mean Value of CRs, p-Erk Fold: 0.01
  Mean Value of CRs, p-S6 Fold: −0.06
  Mean Value of NRs, p-Akt Fold: 0.36
  Mean Value of NRs, p-Erk Fold: 0.21
  Mean Value of NRs, p-S6 Fold: 0.67
AML blasts; [3]
  Mean Value of CRs, p-PLCy2 TotalPhospho: 1.26
  Mean Value of NRs, p-PLCy2 TotalPhospho: 1.95
AML blasts; [4]
  Mean Value of CRs, P-Erk Fold: 0.00
  Mean Value of CRs, p-Akt Fold: 0.19
  Mean Value of CRs, p-S6 Fold: 0.12
  Mean Value of NRs, P-Erk Fold: 0.32
  Mean Value of NRs, p-Akt Fold: 0.60
  Mean Value of NRs, p-S6 Fold: 1.02
[1]
  modulator responsive cells in the diagnostic AML bone marrow samples: ~1%

B2: G-CSF: granulocyte colony-stimulating factor (protein, UniProt P09919 31-207, looked up)
Granulocyte …: TPLGPASSLPQSFLLKCLEQVRKIQGDGAALQEKLVSECATYKLCHPEELVLLGHSLGIPWAPLSSCPSQALQLAGCLSQLHSGLFLYQGLLQALEGISPELGPTLDTLQLDVADFATTIWQQMEELGMAPALQPTQGAMPAFASAFQRRAGGVLVASHLQSFLEVSYRVLRHLAQP
AML PBMC
  percentage of growth factor responsive cells: 3%-56%
AML blasts; [4]
  Mean Value of CRs, p-Stat1 Fold: 0.00
  Mean Value of CRs, p-Stat3 Fold: 0.06
  Mean Value of CRs, p-Stat5 Fold: 0.08
  Mean Value of CRs, p-Stat5 TotalPhospho: 2.58
  Mean Value of NRs, p-Stat1 Fold: 0.36
  Mean Value of NRs, p-Stat3 Fold: 0.96
  Mean Value of NRs, p-Stat5 Fold: 1.07
  Mean Value of NRs, p-Stat5 TotalPhospho: 3.91
[1]
  modulator responsive cells in the diagnostic AML bone marrow samples: ~1%

B3: IL-27: interleukin-27, cytokine modulator (protein, UniProt Q8NEV9 29-243; Q14213 21-229, looked up)
Interleukin-27 subunit alpha: FPRPPGRPQLSLQELRREFTVSLHLARKLLSEVRGQAHRFAESHLPGVNLYLLPLGEQLPDVSLTFQAWRRLSDPERLCFISTTLQPFHALLGGLGTQGRWTNMERMQLWAMRLDLRDLQRHLRFQVLAAGFNLPEEEEEEEEEEEEERKGLLPGALGSALQGPAQVSWPQLLSTYRLLHSLELVLSRAVRELLLLSKAGHSVWPLGFPTLSPQP
Interleukin-27 subunit beta: RKGPPAALTLPRVQCRASRYPIAVDCSWTLPPAPNSTSPVSFIATYRLGMAARGHSWPCLQQTPTSTSCTITDVQLFSMAPYVLNVTAVHPWGSSSSFVPFITEHIIKPDPPEGVRLSPLAERQLQVQWEPPGSWPFPEIFSLKYWIRYKRQGAARFHRVGPIEATSFILRAVRPRARYYVQVAAQDLTDYGELSDWSLPATATMSLGK
AML blasts; [5]
  Mean Value of CRs, p-Stat3: 0.22
  Mean Value of NRs, p-Stat3: 0.58
AML blasts; [2]
  Mean Value of CRs, p-Stat3 Fold: −0.19
  Mean Value of NRs, p-Stat3 Fold: 0.48
AML blasts; [6]
  Mean Value of CRs, p-Stat1 TotalPhospho: 1.73
  Mean Value of CRs, p-Stat3 Fold: 0.29
  Mean Value of CRs, p-Stat3 TotalPhospho: 1.97
  Mean Value of NRs, p-Stat1 TotalPhospho: 3.12
  Mean Value of NRs, p-Stat3 Fold: 0.72
  Mean Value of NRs, p-Stat3 TotalPhospho: 3.06
AML blasts; [4]
  Mean Value of CRs, p-Stat1 Fold: 0.32
  Mean Value of CRs, p-Stat1 TotalPhospho: 1.50
  Mean Value of CRs, p-Stat3 Fold: −0.01
  Mean Value of CRs, p-Stat3 TotalPhospho: 1.61
  Mean Value of NRs, p-Stat1 Fold: 1.90
  Mean Value of NRs, p-Stat1 TotalPhospho: 3.19
  Mean Value of NRs, p-Stat3 Fold: 0.76
  Mean Value of NRs, p-Stat3 TotalPhospho: 2.60
AML blasts; [7]
  Mean Value of CRs, p-Stat1: 1.66
  Mean Value of CRs, p-Stat3: 1.88
  Mean Value of NRs, p-Stat1: 2.63
  Mean Value of NRs, p-Stat3: 2.43
[1]
  modulator responsive cells in the diagnostic AML bone marrow samples: no IL-27 responsive subpopulation was identified
